Results as given in paper PMC11393453, “Phosphorylation of tau at a single residue inhibits binding to the E3 ubiquitin ligase, CHIP” (Nature Communications, 2024).
Where two headings read alike, the source gives them in different places. Values belong to the molecule of their own block, whether it stands above or below them. Non-standard residues stand in square brackets, D forms with d. pS = N[C@@H](COP(=O)(O)O)C(=O)O

How the values were obtained:
[1] = tested on: CHIP; test: NanoBiT live cell PPI assay (CHIP-tau split luciferase); type: cell-based; conditions: 30 nM okadaic acid; HEK293 cells
Protocol: Fig. 1 Phosphorylation of tauC3 inhibits interaction with CHIP. A Cartoon schematic of the live-cell NanoBiT assay for measuring CHIP-tau PPIs (NanoBiT PDB = 7SNX; CHIP PDB = 2C2L). B Results of NanoBiT assays for CHIP interactions with tau proteoforms following treatment with okadaic acid (30 nM, 18 h) or DMSO control. Luminescence normalized to CHIP binding to FL 0N4R tau treated with vehicle (dashed line). Error bars represent standard deviation (SD). Statistical significance was determined by two-way ANOVA with Bonferroni’s post hoc analysis (n = 3 biological replicates). CTRL = mock transfected control. C Tau proteoforms binding to immobilized CHIP measured by ELISA. Assay was performed in technical triplicate and normalized to maximum absorbance at 450 nm. D Dissociation constants derived from (C). Error bars represent SD. E In vitro ubiquitination of tau proteoforms by CHIP. Samples were collected at the denoted timepoints, quenched in SDS-PAGE loading buffer, and analyzed by western blot. Assay was performed once.
Fig. 2 Phosphorylation of tauC3 Ser416 is sufficient to inhibit interaction with CHIP. A Cartoon depicting constructs used for mapping of inhibitory phosphorylation sites by NanoBiT live cell assays. B NanoBiT live cell assay for CHIP interactions with truncated tau constructs following treatment with okadaic acid (30 nM, 18 h) or DMSO control. Data are shown as the difference between okadaic acid treated samples and vehicle control. Error bars represent SD. Statistical significance was determined by two-sided, one-way ANOVA with Tukey’s post hoc analysis (n = 3 biological replicates). C Apparent change in melting temperatures (Tmapp) for CHIP incubated with DMSO control or Hsp70 C-terminal peptides, as determined by DSF. Error bars represent SD. (n = 4 technical replicates). D DSF experiments performed and analyzed as in the previous panel, but with tauC3-derived peptides. (n = 4 technical replicates). E Competition FP experiment showing displacement of fluorescent tracer from the CHIP TPR domain by various 10-mer Hsp70 or tauC3-derived peptides. Experiments were performed in technical quadruplicate. F Inhibition constants derived from (E). Error bars represent SD. G Tau proteoforms binding to immobilized CHIP, as measured by ELISA. Assay was performed in technical triplicate and normalized to maximum absorbance at 450 nm. H Dissociation constants derived from (G). Error bars represent SD.
CHIP-substrate NanoBiT PPI assay was performed as previously described. Briefly, HEK293T cells were seeded in poly-D-lysine coated 96-well plates (Corning, flat bottom, white opaque) in Opti-MEM. Cells were transfected with 50 ng each SmBiT/LgBiT DNA using Lipofectamine 3000 (Thermo Fisher) in Opti-MEM according to the manufacturer’s instructions. Transfections were performed for 24 h, after which the media was replaced with fresh Opti-MEM containing DMSO or 30 nM okadaic acid. Cells were incubated for an additional […] at 37 °C/5% CO2 in a humidified incubator. Following this incubation, 12.5 uL 1X Nano-Glo live cell luciferase reagent (Promega) diluted in LCS buffer (Promega) was added to each well, and samples were incubated for 10 min at room temperature in the dark to allow luminescence levels to stabilize. […] Un-transfected cells were used to obtain background measurements which were subtracted from observed luminescence values.

[2] = tested on: CHIP; test: Differential scanning fluorimetry (DSF), CHIP WT with 10-mer peptides; type: binding, human; conditions: CHIP + peptide, sheet S3B
Protocol: DSF was performed with a 10 µL assay volume in 384-well Axygen quantitative PCR plates (Fisher Sci) on a qTower[3] real-time PCR thermal cycler (Analytik Jena). […] Temperature was increased 1 °C per cycle. Each well contained 5 µM CHIP, 5× Sypro Orange dye (Thermo Fisher), and varying concentrations of peptide in DSF assay buffer (25 mM HEPES pH 7.4, 50 mM KCl, 1 mM TCEP, 0.2% CHAPS, 1%DMSO). Fluorescence intensity data was truncated between 30–60 °C, plotted relative to temperature, and fit to a Boltzmann Sigmoid in GraphPad Prism 9.0. CHIP apparent melting temp (Tmapp) was calculated based on the following equation:1 Y=Bottom+((Top−Bottom)/(1+exp(Tm−T/Slope)))

[3] = biological target: CHIP (C-terminus of Hsc70 interacting protein; STUB1) (UniProt Q9UNE7); test: differential scanning fluorimetry of CHIP
[4] = biological target: CHIP (C-terminus of Hsc70 interacting protein; STUB1) (UniProt Q9UNE7); test: competition FP against fluorescent tracer; conditions: reference: unmodified Hsp70 peptide; sites T636
[5] = biological target: GFP-tagged tauC3 S416E, doxycycline-inducible in HEK293 Flp-In T-REx cells; test: co-IP; tau immunoprecipitated with anti-Tau-5 and Protein A/G agarose from lysates of HEK293 Flp-In T-REx GFP-tau cells (25 mM Tris-HCl pH 7.4, 150 mM NaCl, 1 mM EDTA, 1% NP-40); co-precipitated endogenous CHIP by western blot
[6] = biological target: CHIP (C-terminus of Hsc70 interacting protein; STUB1), recombinant human, full-length (human) (UniProt Q9UNE7)
[7] = biological target: CHIP (C-terminus of Hsc70 interacting protein; STUB1) (UniProt Q9UNE7); test: tau IP (Tau-5), CHIP western blot; conditions: reference: GFP-tauC3 WT; sites S416
[8] = biological target: CHIP (C-terminus of Hsc70 interacting protein; STUB1), recombinant human, full-length (human) (UniProt Q9UNE7); remark: listed apart in the source
[9] = biological target: T1, CHIP D134A (human, UniProt Q9UNE7 1-303, D134A); test: fluorescence polarisation; competition: CHIP 1.58 µM + fluorescent tracer 20 nM, peptide competitor in three-fold dilutions, 25 mM HEPES pH 7.4, 50 mM KCl, 0.01% Triton X-100, DMSO; Ki calculated from IC50; conditions: both partners purified
T1 construct: CHIP (STUB1) with Asp134 mutated to alanine; also called D134A CHIP
T1 sequence (looked up): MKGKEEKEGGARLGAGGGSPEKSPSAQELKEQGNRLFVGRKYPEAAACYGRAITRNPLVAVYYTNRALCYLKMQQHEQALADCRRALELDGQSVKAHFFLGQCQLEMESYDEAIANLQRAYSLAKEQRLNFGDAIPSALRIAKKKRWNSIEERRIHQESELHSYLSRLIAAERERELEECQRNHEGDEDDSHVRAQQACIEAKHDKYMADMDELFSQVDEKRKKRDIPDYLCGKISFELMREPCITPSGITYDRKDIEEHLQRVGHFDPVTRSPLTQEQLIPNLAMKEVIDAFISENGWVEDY

[10] = biological target: T2, CHIP (C-terminus of Hsc70 interacting protein; STUB1), recombinant human, full-length (human, UniProt Q9UNE7 1-303); test: as above; conditions: both partners purified
T2 construct: CHIP (STUB1), human, E3 ubiquitin ligase; Used in ELISA, DSF and FP; the FP legends speak of the CHIP TPR domain, the FP methods only of CHIP; also called WT CHIP; source: E. coli BL21DE3, purified (Ni-NTA, TEV cleavage, SEC); not shown: His6, N-terminal, cleaved
T2 sequence (looked up): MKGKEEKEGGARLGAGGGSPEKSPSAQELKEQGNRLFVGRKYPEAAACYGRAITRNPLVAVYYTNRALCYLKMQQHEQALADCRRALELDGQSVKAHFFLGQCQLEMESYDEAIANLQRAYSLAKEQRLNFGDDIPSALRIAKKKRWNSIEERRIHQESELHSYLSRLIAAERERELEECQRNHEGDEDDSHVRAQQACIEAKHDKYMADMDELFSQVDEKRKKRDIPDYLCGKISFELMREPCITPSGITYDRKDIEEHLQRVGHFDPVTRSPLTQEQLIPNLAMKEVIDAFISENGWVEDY

[11] = biological target: T3, CHIP F131A (human, UniProt Q9UNE7 1-303, F131A); test: differential scanning fluorimetry; 5 µM CHIP, 5x Sypro Orange, varying concentrations of peptide in 25 mM HEPES pH 7.4, 50 mM KCl, 1 mM TCEP, 0.2% CHAPS, 1% DMSO; apparent melting temperature (Tmapp) of CHIP; conditions: both partners purified
T3 construct: CHIP (STUB1) with Phe131 mutated to alanine
T3 sequence (looked up): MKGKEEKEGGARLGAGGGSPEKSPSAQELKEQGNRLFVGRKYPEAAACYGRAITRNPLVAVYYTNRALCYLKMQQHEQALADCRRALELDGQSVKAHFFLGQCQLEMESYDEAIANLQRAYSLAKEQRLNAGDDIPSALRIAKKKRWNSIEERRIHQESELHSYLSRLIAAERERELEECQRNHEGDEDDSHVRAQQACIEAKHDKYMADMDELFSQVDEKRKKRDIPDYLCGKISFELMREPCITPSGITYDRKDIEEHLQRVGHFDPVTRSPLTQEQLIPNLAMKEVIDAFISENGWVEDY

[12] = biological target: T1, CHIP D134A; test: as above; conditions: both partners purified
[13] = reference: unmodified tauC3 peptide, sites S416

Kd [6]: 700 nM
Molecule: p.tauC3, natively phosphorylated tauC3 from Sf9 insect cells (domain or fragment)

other: CHIP Tmapp [3, 13]: weaker; reference 48.81 ± 0.11
Molecule: tau (MAPT/tau; tauC3, FL 0N4R tau) C-terminal 10-mer of tauC3, ends at D421 (from UniProt P10636-8) S416E peptide (Ac-…-OH)

binding against the reference [3, 13]: weaker
Molecule: tau (MAPT/tau; tauC3, FL 0N4R tau) C-terminal 10-mer of tauC3, ends at D421 (from UniProt P10636-8) pS416 peptide

other: relative amount of co-IP CHIP [7]: 0.55
Molecule: tau (MAPT/tau; tauC3, FL 0N4R tau) tauC3, ends at D421 (from UniProt P10636-8) GFP-tauC3 S416E

Kd [8]: 90 nM
Kd [6]: 190 nM
Molecule: tauC3, unmodified recombinant (0N4R tau cleaved at D421) (domain or fragment)

Ki [9]: 1840 nM
Ki [10]: 1010 nM
B1: tauC3 pS416 10-mer peptide (peptide)
peptide: Ac-SSTG[pS]IDMVD-OH
notes: C-terminal 10-mer of tauC3 with a bona fide phosphoserine at the S416 position; numbers count on: the 2N4R-tau splice isoform; also called phosphorylated tauC3 peptide; source: synthetic peptide (Genscript)

Ki [10]: 2410 nM
binding result [11]: binds
binding result [12]: binds
B3: tauC3 S416E phosphomimetic 10-mer peptide Ac-SSTGEIDMVD-OH (peptide)
peptide: Ac-SSTGEIDMVD-OH
notes: C-terminus of tauC3 with S416 replaced by glutamic acid; numbers count on: the 2N4R-tau splice isoform; also called tauC3 S416E peptide; pS416 phosphomimetic; source: synthetic peptide

The remaining lines, values behind:

Molecule: C=C1[C@@H](O)[C@@H]2O[C@]3(CC[C@H](/C=C/[C@@H](C)[C@@H]4CC(C)=C[C@@]5(O[C@H](C[C@@](C)(O)C(=O)O)CC[C@H]5O)O4)O3)CC[C@H]2O[C@@H]1[C@@H](O)C[C@H](C)[C@H]1O[C@@]2(CCCCO2)CC[C@H]1C [okadaic acid, reference compound]
effect on CHIP interaction with FL tau [1]: enhanced CHIP’s interaction with FL tau
effect on CHIP interaction with tauC3 [1]: significantly lessened the interaction with tauC3

Molecule: ESTGSIDMVD [tauC3 S412E, 10-mer tauC3 phosphomimetic peptide]
Tm(app) derived from DSF curves ([2]; replicate 1): 50.23
Tm(app) derived from DSF curves ([2]; replicate 2): 50.09
Tm(app) derived from DSF curves ([2]; replicate 3): 49.65
Tm(app) derived from DSF curves ([2]; replicate 4): 49.78

Molecule: Hsp70 (HSPA1A) C-terminal 10mer (from UniProt P0DMV8) pT636 peptide
binding against the reference ([3]; reference: unmodified Hsp70 peptide, sites T636): weaker
binding against the reference [4]: weaker

Molecule: SETGSIDMVD [tauC3 S413E, 10-mer tauC3 phosphomimetic peptide]
Tm(app) derived from DSF curves ([2]; replicate 1): 50.06
Tm(app) derived from DSF curves ([2]; replicate 2): 50.15
Tm(app) derived from DSF curves ([2]; replicate 3): 49.96
Tm(app) derived from DSF curves ([2]; replicate 4): 49.5

Molecule: SSEGSIDMVD [tauC3 T414E, 10-mer tauC3 phosphomimetic peptide]
Tm(app) derived from DSF curves ([2]; replicate 1): 49.33
Tm(app) derived from DSF curves ([2]; replicate 2): 49.12
Tm(app) derived from DSF curves ([2]; replicate 3): 49.22
Tm(app) derived from DSF curves ([2]; replicate 4): 48.96

Molecule: endogenous CHIP (from UniProt Q9UNE7 1-303) (enzyme)
relative amount of co-immunoprecipitated CHIP [5]: 0.55

Molecule: tauC3 S416E, recombinant protein with a single phosphomimetic mutation (domain or fragment)
Kd [8]: 780 nM

B2: tauC3 C-terminal 10-mer peptide Ac-SSTGSIDMVD-OH (peptide)
peptide: Ac-SSTGSIDMVD-OH
notes: C-terminus of tauC3 (tau ending at D421); numbers count on: the 2N4R-tau splice isoform; also called WT tauC3 peptide; WT tauC3; source: synthetic peptide
Ki [9]: 5570 nM
Ki [10]: 150 nM
binding result [11]: binds
